Measurements from the DeepSol protein solubility set.

Test: soluble on expression in E. coli; label from the status in PepcDB or PDB records

Sequence	soluble on expression in E. coli
NMRQVLKTDRLVLEPQSMARFDQWFAMERQRDEAGHRDLTEDQAWLRLCARQGMWDAYACGFYYLLDPVSGEMRGEAGFQFRRRGFGPGFDNHPEAAWAVASAHQGRGLAAEAMQALLAHHDRSSGRQRVVALIARSNLPSLRLAERLG	not soluble
MKYTIEEIRQMQEGQTFDCKSILIEPKHLATIIVAMANADGGMIAVGISDKTRRIEGVNQDKEHLNDILRTPLDFCVPSVSVTTDYVPCTDAEGRDNRVLLMHIPASPRLHANQADEVFWRVGDKSRKLTFDERLQLMYDKGERYYEDSTAYDATLDDIDMDAVKAYMKRIGYGKSAMEYLQENKGFVTYKGDVPQVSAACILLFGKHPQTFFPRARVRFIKYFGTEEKVGREMNVIKDVTFDGRILEQIQKTVEYLETQVKEHSYLGEDGIFKTDREYPKFVIQEMVVNSVCHRDYSIKGTEIQIKMFDDRLVFETPGKLPGIVRTDNIRHTHFSRNPKIAEFLKAYDYVKEFGEGVDRMCRELSALGVKEPQYNLVAFIMKATVCAKVLEERQGTNHFDQKRPESDQKSDQMRIILELIKSNPNISRTELSEKTGLHDSSVKRRLKTLVDEGLIQRVGPDKGGQWKVIGSLLEHHHHHH	soluble
MEHLLAIALGPVQEFIATARRTRDLYAGSRLLSEAAARAAKALAREVGAKNLIFPAPEDEAGLERLAGAGIPNVLLVRVPEGKDPRGLGEQALGAARDYLRERAEEVLGPRRDLLFWREALAQVEDLLEGYYAYLPLEGDYPRARERLMALLAARKNTRDFAPVSWGSPAYKSSLDGARESVLRLPEKEADHLRVRLGLRPGEYLAGPDLLKRWWKAGHGFLSTTHMAALPFWEGVRRAGLEAVLKEALEELGGLVGEEARAEVRHPVLRDTPFGEWDVRLLYESRLEEFPSLAEDPGLLEKARDRLRALWRRLFPKVRVPPGAYYALLHADGDRMGETLDGLPSPEAHRRFSNALALGFAAQVKDIVEAHGGGLVYSGGDDVLALLPLHTALMAARALADRFREAMAPFGREGRAPSLSVGLAVVHHLEPLQDALDLARRAEKWAKEGEPKRNALCVAYSPRSGAERLVRGRWDENPPLTRRLLRYADLLRAGEVPSRAAYELLALVREAGEALSGEALVAEALRILGRKEMKRAYREELEAWLRTGEDVRRLAEELILARPFAEALDQAGVPVESREVWDAH	soluble
MQNQYFTVQENYKERFYQIPKVFFTSENYKNLTNDMKIAYAILRDRLNLSIKNSWVDEDGNIYFVYSNEKLMEILNCKKEKLTKIKKGLENDGLLIQKRRGLNKPNILYLMKPIVTERDIYKIEKEENDVEPYGEKEVRKSNVQKFENRTSRSSKIERPEVRKSNTNDTDFNDIDFNDTENNDMNDLNDIKYKNEISNHSNHSNQFTHNFDDKEMLLQEFPEQLTNYLLKYDYRDLEIIKAVILKAKKSFNSRHEDMHYMLEDIEDEILTSLKRLKKAIHDRGVKGQKETIKSMQAYLMQTILTELEETHALYMRRKNMKQYNIFNQ	soluble
MNSRQQTILQMVIDQGQVSVTDLAKATGVSEVTIRQDLNTLEKLSYLRRAHGFAVSLDSDDVETRMMSNYTLKRELAEFAASLVQPGETIFIENGSSNALLARTLGEQKKNVTIITVSSYIAHLLKDAPCEVILLGGVYQKKSESMVGPLTRQCIQQVHFSKAFIGIDGWQPETGFTGRDMMRTDVVNAVLEKECEAIVLTDSSKFGAVHSYSIGPVERFNRVITDSKIRASDLMHLEHSKLTIHVVDILEHHHHHH	soluble
MNNLMPAELAPQINAHFNGKFEVELKYRLADREAFWARLSAKSPEVMLEDNLEHDCYFDSPSASLAAQHKSLCIREMQPSGIRLWIVKGPEKDRCEAVNITDANKAKSMLRTLGYQCVLEIKKRRSVYFLGQFHLTLDRLEGLGDFAELAIMTDDEAMLPVYEAQLVALAAELGLNESQREFLSYRQLQQALQQLEHHHHHH	not soluble
MGSDKIHHHHHHMTVQSSDVIAPPAPRTLPDTGLSLVMLRDILLKTMFRMNLELVSQIAPVICLPAPLAQELVDLARSQRLVEATGTLHATSGNEMGYQLTDQGKARALDALSQSEYYGAMPVPLDRYRLQVERQSVRHIKLTRAQLTAAMGHLILPDELLDHLGPAVTSGRSILMYGPPGNGKSSISNGIRDALGDRIYVPRALEYSGQVITVYDPIVHRSAESAVDDPTSLRRTSNRFDNRYVWCERPTVITGGELTLDMLDLTYNPVARTYQAPLQLKATGGIFIVDDLGRQAEPPQKLVNRWIVPLEENRDILALQSGEKFTVPFDTLVIFSTNFHPNEIFDGAALRRIFFKIKVDGPSQENFLKIFAMVAKKRKMPLDETALVHLMKAKFPTIDNRYANYMPVYLIDQMISVCDFEGLPYQMTPALIDRAWSNMFVRDEVIAK	not soluble
MKVKKWVTQDFPMVEESATVRECLHRMRQYQTNECIVKDREGHFRGVVNKEDLLDLDLDSSVFNKVSLPDFFVHEEDNITHALLLFLEHQEPYLPVVDEEMRLKGAVSLHDFLEALIEALAMDVPGIRFSVLLEDKPGELRKVVDALALSNINILSVITTRSGDGKREVLIKVDAVDEGTLIKLFESLGIKIESIEKEEGF	not soluble
MADFDTNPTSLYSIKGIVILDQDGNRVLAKYYDRTTFGTVKEQKAFEKSLFSKTSRNTSADILLLDGVTCLYRSNVDLYFYVLGSTRENELFLDATLTCLYDAVSVVLRKNVEKKALIDSMDTIMLIIDEICDEGIIMETDAQAVVQRTALKSDEVSFSDQSVSQIGFSFMKSANEQFKWSLLK	not soluble
MNVKEVVTEEQLHDVLPVLQQLRTKLSKEETSSLFRNMKEENYKLFSLRNEDDEVVSLAGVAICTNFYNKKHVFVYDLVTAEAHRSKRHGKVLLSYIENWGKENECESIVLTSAFSRIDAHRFYEREGYDKVSYSFHKEL	not soluble
SMPAYACQRPSPLTHHNTLLSEALETLAEAAGFEANEGRLLSFSRAASVLKSLPCPVASLSQLHGLPYFGEHSTRVIQELLEHGTCEEVKQVRCSERYQTMKLFTQVFGVGVKTANRWYQEGLRTLDELREQPQRLTQQQKAGLQYYQDLSTPVRRADAEALQQLIEAAVRQTLPGATVTLTGGFRRGKLQGHDVDFLITHPEEGQEVGLLPKVMSCLQSQGLVLYHQYHRSHLADSAHNLRQRSSTMDVFERSFCILGLPQPQQAALAGALPPCPTWKAVRVDLVVTPSSQFPFALLGWTGSQFFERELRRFSRQEKGLWLNSHGLFDPEQKRVFHATSEEDVFRLLGLKYLPPEQRNA	soluble
MSLNIETKKVAVEEISAAIANAQTLVVAEYRGISVSSMTELRANARKEGVYLRVLKNTLARRAVQGTSFAELADQMVGPLVYAASEDAVAAAKVLHQFAKKDDKIVVKAGSYNGEVMNAAQVAELASIPSREELLSKLLFVMQAPVSGFARGLAALAEKKAGEEAA	not soluble
MPRDVQVLPIATNTKVLRARSWSRLRFEIEYALERGTTSNSYVIEGDKTAIIDPPVESFMKIYLEALQQTVNLKKLDYVILGHFSPNRIPTFKALLELAPQITFVCSLPAAGDLRAAFPDDNLNILPMRGKETLDLGKGHVLKFLPIPSPRWPAGLCTYDVQTQILYTDKIFGAHICGDDVFDDNWESFKEDQRYYFNCLMAPHAIHVEAALEKISDLQVRLYAVGHGPLVRTSLIALTQAYADWSKAQKDREISVALLYASAYGNTATIARAIALGLTKGGVAVKSINCEFATPEEIQTNLEQVDGFLIGSPTIGGHAPTPINTALGIVLKVGDNNKLAGVFGSYGWSGEALDMIEGKLRDAGYRFGLDTLKVKFKPDDVTLKFCEEVGTDFAQTLKKAKKVRVPQQAATPVEQAVGRIVGSVCVITAKQGDVSTGMLGSWVSQATFNPPGLTVAIAKERAIESLMYPGGKFALNILSEGNHLEYMKHFRKNFAPGEDRFANFTTTEADNGCTVLADALAYVECSVDQRLECGDHWVVYATVDNGKLLKPDDVTAINHRKTGNHYLEHHHHHH	not soluble
MGSDKIHHHHHHMSTELNTMALSVPQGAGLDGYIQSVNRIPMLTAEKEKALATRLYENSDLDAAKELIMSHLRFVVHVARSYSGYGLPQADLIQEGNIGLMKAVKRFDPSVGVRLVSFAVHWIKAEIHEYVLRNWRVVKVATTKAQRKLFFNLRKMKKRLGWFSQKEVETVANELGVSTKEVLEMETRMSAHDQAFELSSDDDDSKEGSAYSPAMYLEDKRSDLAAEIEAKDYENHTQQKLLGAMSHLDERSQDIVQSRWLSEDKTTLHDLAEKYEVSAERVRQLEQNAMKKLRLAMS	not soluble
MDRFDAMQAFARVVDTGSFTKAAETLHMSRTSVTQLVQQLEARLRVRLLNRTTRKLNLTADGAAYYERVVRLLAELDDAETSLSSAALAPRGRLRIDVPSPLARLLLIPALPEFHARYPEIQIDLGVSDRLVDLIDENVDCVIRGGELRDQSLMARRVGDLQLGVYAAPAYLQRAGVPSHPRELEDSHQRIVGFLWARTGKALPYAMRRGEECLRVAGRHVLAVDDGNAYLAAGLAGLGILWLPHYMAREPLARGELLPLFEDWSLEPMPLYLAFPPNRHVSGKLRVFIEWVAELIARHAPPLHPPL	not soluble
LQETGAEFKIEVSILKDKATVLIDTTGASLFKRGYRTDKGGAPIKENMAAAILELSNWYPDKPLIDPTCGSGTFCIEAAMIGMNIAPGFNRDFAFEAWNWVGKDLVQSVRDEADSKANYDVALDIMGCDIDSRMVEIAKANAREAGLEDVVKFKQMRLQDLKTDKINGVIISNPPYGERLLDDKAVDILYNEMGQTFAPLKTWSKFILTSDEQFESKYGMKADKKRKLYNGTLRVDLYQYFGERVRRSEARKVN	not soluble
MGSDKIHHHHHHLPSARLSPRLSSPAGCRQTEWSQMPEAFIELRAITKRFSGVCALDALSLTINKGEIHCLAGENGSGKSTVIKVMAGVYQPDGGEILINGAPVRALTPIEAVRRNIQVIYQDFSLFGNLTVAENLALCGELQQKRKLADWKRIRAIGRQALDRLGVDIDLEVDVERLPTSSRQIVAIARALMSDAKLLIMDEPTTALTGREVDALFRIVKDIQAQGIAVLFVSHKMREMLEISERLTVIRNGRTVIDGPTSAFDESAVTRHMTGLDILSEGYAWAGSPEAVPRLEVRGLSLPGAFEDLSLAIRPGEIVGLSGLLGSGRTEFALSLFGMMPPAAGQVLVDGAQIAPRSVQDAIAEGITYVPEDRLTEGLFLTQSIDRNILATSYERLAPRGVIDRAKAAMQSAGMIKAMQIATPTGEKPVGQLSGGNAQRVVLARWLLTDAKVLILNGPTVGVDVGSKAEIHRKIRELASAHGLAVLMISDDVLELVQNTNRIVLMHRGRFVDDLPTATVSEQSINDLLKSFT	not soluble
MKIDLNCDLGEGFGVWQMGDDAAMMQIATSVNIACGFHAGDPDIMHATVKLAKQNGVAIGAHPGFRDLHGFGRRPVPGITAAEIENLVAYQIGALQAVAALAGHKVTHVKAHGALSNVACEDDMTARAIASAIKAVDPSLVFVVLANSKLMLAGEAAGLPLAHEVFADRAYEDDGNLVSRKKPGAVLHDPNEIAERVLRMAQDGAVVSVTGKVIKMRTDTVCIHGDTKGAVEIARGVRRKLEASGITVAPFAGTLEHHHHHH	soluble
MAVPPAYADLGKSAKDIFNKGYGFGMVKLDVKTKSASGVEFKTSGSSNTDTSKVVGSLETKYKRSEYGLTFTEKWNTDNTLGTEINIEDQIAKGLKLTFDTTFSPNTGKKSGKVKTAYKREFVNLGCDVDFDFAGPTIHGAAVVGYEGWLAGYQMSFDTAKSKMTQNNFAVGYKTGDFQLHTNVNDGSEFGGSIYQKVSDKLETAVNLAWTAGSNSTRFGIAAKYQLDKDASISAKVNNTSLVGVGYTQSLRPGIKLTLSALVDGKSINSGGHKLGLGLELEA	not soluble
MGSDKIHHHHHHMKKKLALVVVHEIYGVNDHMHHVTDHFTSSHIDVFCPNLLQSQPAFHYSDEEKAYHFFMNHIGFEDGKKQIETFITHLSSRYTHIGLIGFSVGATISWLCSNNPKIDFIIGCYGSRIRDYIHMKPTCATLLIFPEKEASFSVPSFIQSLQQQKNPLLEIYQLHGEHGFLNPYTEKYNGHSTNQAYNLIDSFLVKNTLIKEM	not soluble
